From patent publication US20150246949A1, “Desmoglein 2 (DSG2) Binding Proteins and Uses Therefor” (UNIVERSITY OF WASHINGTON THROUGH ITS CENTER FOR …, priority 2012, published 2015) come the findings set out here.

Numbering of substitutions follows the chain as printed. Numbers in names are those of the source.

The target of experiment [1] is human DSG2 on cells (HeLa cells; polarized T84 cells) (human) (UniProt Q14126). Nature of the experiment: cell-based or functional assay.
For experiment [2] the target is unchanged. Kind of experiment: attachment of 3H-labelled Ad3 virus (competitor) to HeLa cells pre-incubated with the dimeric knob.
Experiment [3] concerns the target T1, Recombinant human DSG2 protein (Leinco Technologies) (human, UniProt Q14126 50-609).
T1 construct: also called soluble DSG2; soluble recombinant DSG2
T1 sequence: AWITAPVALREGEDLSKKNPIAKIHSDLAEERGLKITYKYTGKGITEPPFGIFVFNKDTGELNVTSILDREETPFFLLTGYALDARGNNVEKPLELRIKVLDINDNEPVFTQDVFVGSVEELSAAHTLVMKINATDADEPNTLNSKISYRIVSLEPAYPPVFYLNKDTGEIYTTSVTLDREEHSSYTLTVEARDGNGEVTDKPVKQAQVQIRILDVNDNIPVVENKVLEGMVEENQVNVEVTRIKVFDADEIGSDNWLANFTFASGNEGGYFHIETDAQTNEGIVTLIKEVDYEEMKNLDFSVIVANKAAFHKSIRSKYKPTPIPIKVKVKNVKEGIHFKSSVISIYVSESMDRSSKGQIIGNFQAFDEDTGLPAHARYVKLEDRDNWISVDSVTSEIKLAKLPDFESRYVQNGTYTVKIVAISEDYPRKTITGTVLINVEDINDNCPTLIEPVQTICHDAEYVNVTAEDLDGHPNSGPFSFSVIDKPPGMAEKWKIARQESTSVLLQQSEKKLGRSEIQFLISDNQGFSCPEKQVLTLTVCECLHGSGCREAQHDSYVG
Nature of the experiment: not given; SPR on immobilised DSG2 by the context (FIG. 7).

Experiment [4] addresses T2, human DSG2 on cells (HeLa cells; polarized T84 cells) (human, UniProt Q14126 50-1118).
T2 sequence: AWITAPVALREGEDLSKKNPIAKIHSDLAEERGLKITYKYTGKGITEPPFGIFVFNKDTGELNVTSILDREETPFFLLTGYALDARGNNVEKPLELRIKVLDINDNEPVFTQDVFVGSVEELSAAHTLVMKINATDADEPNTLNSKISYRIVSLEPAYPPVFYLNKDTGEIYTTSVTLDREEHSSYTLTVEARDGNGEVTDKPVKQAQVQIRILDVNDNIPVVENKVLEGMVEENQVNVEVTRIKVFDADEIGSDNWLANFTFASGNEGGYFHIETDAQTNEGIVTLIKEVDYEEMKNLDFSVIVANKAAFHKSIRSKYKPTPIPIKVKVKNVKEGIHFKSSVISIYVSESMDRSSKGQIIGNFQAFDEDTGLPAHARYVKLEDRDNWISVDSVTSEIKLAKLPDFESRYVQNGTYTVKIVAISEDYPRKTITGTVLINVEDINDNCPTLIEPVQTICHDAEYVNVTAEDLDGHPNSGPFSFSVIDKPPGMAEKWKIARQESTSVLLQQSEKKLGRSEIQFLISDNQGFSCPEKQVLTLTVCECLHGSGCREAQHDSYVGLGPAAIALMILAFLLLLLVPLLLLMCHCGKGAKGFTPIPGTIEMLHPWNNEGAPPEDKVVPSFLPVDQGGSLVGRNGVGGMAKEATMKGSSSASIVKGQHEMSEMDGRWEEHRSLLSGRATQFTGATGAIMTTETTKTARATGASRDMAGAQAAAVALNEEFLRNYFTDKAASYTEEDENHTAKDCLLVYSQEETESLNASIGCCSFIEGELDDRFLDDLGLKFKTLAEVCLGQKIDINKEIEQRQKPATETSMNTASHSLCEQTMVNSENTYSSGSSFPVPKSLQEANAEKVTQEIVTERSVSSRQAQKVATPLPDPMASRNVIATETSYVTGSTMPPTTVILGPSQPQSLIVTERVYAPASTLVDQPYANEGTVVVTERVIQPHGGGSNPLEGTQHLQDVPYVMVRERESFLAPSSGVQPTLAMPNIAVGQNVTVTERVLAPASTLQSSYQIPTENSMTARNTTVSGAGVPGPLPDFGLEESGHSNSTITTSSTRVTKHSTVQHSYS
Nature of the experiment: cell-based or functional assay.

Experiment [5] deals with T2, human DSG2 on cells (HeLa cells; …). Kind of experiment: cell-based or functional assay. This is another data set of the same source.
Experiment [6] concerns the target T1, Recombinant human DSG2 protein (Leinco …). Nature of the experiment: SPR (BIAcore 3000), DSG2 immobilised on the sensor chip, knobs injected at 2.5 to 10 µg/ml, BIAeval. For orientation: In SPR one partner is held on a chip, and binding of the other changes the refractive index at the surface.
For experiment [7] the target is unchanged. Kind of experiment: SPR (BIAcore 3000), DSG2 immobilised on CM4 chip, knob injected.
Experiment [8] has the same target. Nature of the experiment: SPR (BIAcore 3000), DSG2 immobilised, BIAeval; as printed in this row, but kd/ka of the row gives 24.9 nM and paragraph 239 gives 405-fold over wt: the KD cells of Y250F and V239D look interchanged on the sheet.
Another experiment concerns the target T3, DSG2 (Homo sapiens, UniProt Q14126).
T3 construct: purchased Leinco Technologies, Inc. (St. Louis, Mo.)
T3 sequence (Q14126 50-609 limits assumed): T1 sequence
Kind of experiment: Surface plasmon resonance of non-dimerized Ad3 fiber knobs on immobilized DSG2. The format is binding. As to conditions: knobs without dimerization domain. On the procedure: FIG. 7. SPR analysis of non-dimerized Ad3 fiber knob interactions with DSG2. A) DSG2 was immobilized on sensorchips, and background was automatically subtracted from the control flow cell. The Ad3 fiber knobs (w/o dimerization domain: “noDD”) were injected for 3 minutes at 2.5 μg/ml followed by a 2.5 minutes dissociation period. B) Summary of SPR data. […] The extracted data are resumed in the table. Wt=Ad3 fiber knob without mutations
Acquisitions were done on a BIAcore 3000 instrument. HBS-N (GE-Healthcare, Pittsburgh, Pa.) supplemented with 2 mM CaCl2 was used as running buffer in all experiments at a flow rate of 5 μl/min Immobilization on CM4 sensorchip (BIAcore) was performed using DSG2 at 10 μg/ml diluted in 10 mM Acetate buffer pH 4.5 injected for 10 minutes on ethyl(dimethylaminopropyl) carbodiimide (EDC)/N-Hydroxysuccinimide (NHS) activated flow-cell. A control flow-cell was activated by (EDC/NHS) and inactivated by ethanolamine Different concentrations of Ad3 fiber knob proteins were injected for 3 minutes association followed by 2.5 minutes dissociation time, and the signal was automatically subtracted from the background of the ethanolamine deactivated EDC-NHS flow cell. Kinetic and affinity constants were calculated using the BIAeval software.

Experiment [9] addresses T1, Recombinant human DSG2 protein (Leinco …). Nature of the experiment: SPR (BIAcore 3000), DSG2 immobilised, BIAeval; as printed in this row, but kd/ka of the row gives 11.4 nM and paragraph 239 gives 885-fold over wt: the KD cells of Y250F and V239D look interchanged on the sheet.
In a further experiment the target is T4, soluble CD46 (UniProt P15529 35-343).
T4 construct: also called sCD46
T4 sequence: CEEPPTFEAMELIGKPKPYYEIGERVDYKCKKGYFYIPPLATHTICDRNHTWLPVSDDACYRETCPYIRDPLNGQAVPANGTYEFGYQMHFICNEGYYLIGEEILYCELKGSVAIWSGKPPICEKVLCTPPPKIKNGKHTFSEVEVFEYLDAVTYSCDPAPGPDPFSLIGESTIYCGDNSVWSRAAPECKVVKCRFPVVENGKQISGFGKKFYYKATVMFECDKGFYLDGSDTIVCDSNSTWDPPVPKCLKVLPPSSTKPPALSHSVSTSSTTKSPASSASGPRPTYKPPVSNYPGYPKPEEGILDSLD
Kind of experiment: Western blot, soluble CD46 as probe, anti-CD46 mAb. For orientation: Immunoblotting shows a protein as a band on a membrane.

The target in experiment [10] is T1, Recombinant human DSG2 protein (Leinco …). Nature of the experiment: Western blot of the blotted knob probed with soluble hDSG2, anti-DSG2 (6D8), HRP-anti-mouse IgG [upper panel].

Turning to “dimeric Ad3 fiber knob mutant N186D, D261N, L296R (designed binder)”, the Inhibition of infection in the presence of dimeric knob (JO-1 = 100%) in experiment [1] worked out at 0%. The Inhibition of attachment in the presence of dimeric knob (JO-1 = 100%) in experiment [2] turned out to be 18.5%.

B1: JO-4 (affinity-enhanced version of JO-1) (designed binder)
chain: MRGSHHHHHHGSKVSALKEKVSALKEKVSALKEKVSALKEKVSALKEGSGGGSGGGSGGGSNSIALKNNTLWTGPKPEANCIIEYGKQNPDSKLTLILVKNGGIVNGYVTLMGASDYVNTLFKNKNVSINVELYFDATGHILPDSSSLKTDLELKYKQTADFSARGFMPSTTAYPFVLPNAGTHNENFIFGQCYYKASDGALFPLEVTVMLNKRLPDSRTSYVMTFLWSLNAGLAPETTQATLITSPFTFSYIREDD
The Kd is the constant that tells how readily two partners part at equilibrium. Regarding B1, the Kd in experiment [3] is 11.4 nM.

B2: JO-1 (self-dimerizing trimeric wild-type Ad3 fiber knob) (designed binder)
chain: MKVSALKEKVSALKEKVSALKEKVSALKEKVSALKEGSGGGSGGGSGGGSNSIALKNNTLWTGPKPEANCIIEYGKQNPDSKLTLILVKNGGIVNGYVTLMGASDYVNTLFKNKNVSINVELYFDATGHILPDSSSLKTDLELKYKQTADFSARGFMPSTTAYPFVLPNAGTHNENYIFGQCYYKASDGALFPLEVTVMLNKRLPDSRTSYVMTFLWSLNAGLAPETTQATLITSPFTFSYIREDD
Regarding B2, the “IC50 (read off the curve), GFP MFI after Ad3-GFP infection of HeLa cells” value in [4] is around 0.6 µg/mL. In [5], the “IC50 (read off the curve), % GFP-positive cells after Ad3-GFP infection of HeLa cells” value was around 5 µg/mL.

B3: Ad3 fiber knob mutant V239D without dimerization domain (ligand)
chain: NKLCSKLGNGLTFDSSNSIALKNNTLWTGPKPEANCIIEYGKQNPDSKLTLILVKNGGIVNGYVTLMGASDYVNTLFKNKNVSINVELYFDATGHILPDSSSLKTDLELKYKQTADFSARGFMPSTTAYPFDLPNAGTHNENYIFGQCYYKASDGALFPLEVTVMLNKRLPDSRTSYVMTFLWSLNAGLAPETTQATLITSPFTFSYIREDD
notes: range 108-319; also called V239D/noDD; not shown: N-terminal 6-His tag of pQE30 and linker
The koff is the rate constant with which the complex falls apart. Broadly, the kon is the rate constant with which the complex forms. With B3, in [6], the koff was determined as 0.00266 s⁻¹ and the kon stood at 107000 M⁻¹ s⁻¹. Also, in experiment [7], the “fold higher affinity than wt Ad3knob/noDD” value is 405 fold. Also, in experiment [8], the Kd stood at 11.4 nM.

B4: wt Ad3 knob: wild-type trimeric Ad3 fiber knob without the dimerization domain (protein)
chain: B3 chain with D132V
modifications: left off: small tags and cut ends
notes: wild-type trimeric Ad3 fiber knob without the dimerization domain
For the molecule B4, the “Association rate to DSG2” value in the experiment with DSG2 is listed as “slow association rate”.

B5: N293S/noDD (protein)
chain: B3 chain with D132V, N186S
modifications: left off: small tags and cut ends
In the case of B5, the “Association rate to DSG2” value in the experiment with DSG2 is given as “association rate was lowest”.

B6: Ad3 fiber knob mutant Y250F without dimerization domain (ligand)
chain: B3 chain with D132V, Y143F
notes: range 108-319; also called Y250F/noDD; not shown: N-terminal 6-His tag of pQE30 and linker
Consider B6, for which the dissociation constant (Kd) in [9] turned out to be 24.9 nM. In experiment [6], the koff turned out to be 0.00264 s⁻¹ and the association rate constant (kon) is 232000 M⁻¹ s⁻¹. Moreover, the “fold higher affinity than wt Ad3knob/noDD” value in [7] was determined as 885 fold.

B7: Ad3-S/Kn (ligand)
chain: NSIALKNNTLWTGPKPEANCIIEYGKQNPDSKLTLILVKNGGIVNGYVTLMGASDYVNTLFKNKNVSINVELYFDATGHILPDSSSLKTDLELKYKQTADFSARGFMPSTTAYPFVLPNAGTHNENYIFGQCYYKASDGALFPLEVTVMLNKRLPDSRTSYVMTFLWSLNAGLAPETTQATLITSPFTFSYIREDD
notes: also called wild-type Ad3 fibers
For B7, the binding result (with soluble CD46; in experiment [10]) was “no binding” in each case.
